Results reported in patent US20160113911A1, “METHODS AND COMPOSITIONS FOR THE TREATMENT OF CANCER” (THE GENERAL HOSPITAL CORPORATION, priority 2013, published 2016).
Changes are numbered by the printed parent chain. Names may count otherwise.

B1: 2A-E558Q: KDM4A mutation (protein)
chain: MASESETLNPSARIMTFYPTMEEFRNFSRYIAYIESQGAHRAGLAKVVPPKEWKPRASYDDIDDLVIPAPIQQLVTGQSGLFTQYNIQKKAMTVREFRKIANSDKYCTPRYSEFEELERKYWKNLTFNPPIYGADVNGTLYEKHVDEWNIGRLRTILDLVEKESGITIEGVNTPYLYFGMWKTSFAWHTEDMDLYSINYLHFGEPKSWYSVPPEHGKRLERLAKGFFPGSAQSCEAFLRHKMTLISPLMLKKYGIPFDKVTQEAGEFMITFPYGYHAGFNHGFNCAESTNFATRRWIEYGKQAVLCSCRKDMVKISMDVFVRKFQPERYKLWKAGKDNTVIDHTLPTPEAAEFLKESELPPRAGNEEECPEEDMEGVEDGEEGDLKTSLAKHRIGTKRHRVCLEIPQEVSQSELFPKEDLSSEQYEMTECPAALAPVRPTHSSVRQVEDGLTFPDYSDSTEVKFEELKNVKLEEEDEEEEQAAAALDLSVNPASVGGRLVFSGSKKKSSSSLGSGSSRDSISSDSETSEPLSCRAQGQTGVLTVHSYAKGDGRVTVGQPCTRKKGSAARSFSERELAEVADEYMFSLEENKKSKGRRQPLSKLPRHHPLVLQECVSDDETSEQLTPEEEAEETEAWAKPLSQLWQNRPPNFEAEKEFNETMAQQAPHCAVCMIFQTYHQVEFGGFNQNCGNASDLAPQKQRTKPLIPEMCFTSTGCSTDINLSTPYLEEDGTSILVSCKKCSVRVHASCYGVPPAKASEDWMCSRCSANALEEDCCLCSLRGGALQRANDDRWVHVSCAVAILEARFVNIAERSPVDVSKIPLPRFKLKCIFCKKRRKRTAGCCVQCSHGRCPTAFHVSCAQAAGVMMQPDDWPFVVFITCFRHKIPNLERAKGALQSITAGQKVISKHKNGRFYQCEVVRLTTETFYEVNFDDGSFSDNLYPEDIVSQDCLQFGPPAEGEVVQVRWTDGQVYGAKFVASHPIQMYQVEFEDGSQLVVKRDDVYTLDEELPKRVKSRLSVASDMRFNEIFTEKEVKQEKKRQRVINSRYREDYIEPALYRAIME
B2: 2A-R765Q: KDM4A mutation (protein)
chain: B1 chain with Q558E, R765Q
B3: 2A-E1032K: KDM4A mutation (protein)
chain: B1 chain with Q558E, E1032K
B4: 2A-D1023Y: KDM4A mutation (protein)
chain: B1 chain with Q558E, D1023Y
B5: 2A-V1003A: KDM4A mutation (protein)
chain: B1 chain with Q558E, V1003A
B6: 2A-V743I*: KDM4A mutation (protein, UniProt O75164 2-1064, looked up, variant V743I)
Lysine-specific demethylase 4A: ASESETLNPSARIMTFYPTMEEFRNFSRYIAYIESQGAHRAGLAKVVPPKEWKPRASYDDIDDLVIPAPIQQLVTGQSGLFTQYNIQKKAMTVREFRKIANSDKYCTPRYSEFEELERKYWKNLTFNPPIYGADVNGTLYEKHVDEWNIGRLRTILDLVEKESGITIEGVNTPYLYFGMWKTSFAWHTEDMDLYSINYLHFGEPKSWYSVPPEHGKRLERLAKGFFPGSAQSCEAFLRHKMTLISPLMLKKYGIPFDKVTQEAGEFMITFPYGYHAGFNHGFNCAESTNFATRRWIEYGKQAVLCSCRKDMVKISMDVFVRKFQPERYKLWKAGKDNTVIDHTLPTPEAAEFLKESELPPRAGNEEECPEEDMEGVEDGEEGDLKTSLAKHRIGTKRHRVCLEIPQEVSQSELFPKEDLSSEQYEMTECPAALAPVRPTHSSVRQVEDGLTFPDYSDSTEVKFEELKNVKLEEEDEEEEQAAAALDLSVNPASVGGRLVFSGSKKKSSSSLGSGSSRDSISSDSETSEPLSCRAQGQTGVLTVHSYAKGDGRVTVGEPCTRKKGSAARSFSERELAEVADEYMFSLEENKKSKGRRQPLSKLPRHHPLVLQECVSDDETSEQLTPEEEAEETEAWAKPLSQLWQNRPPNFEAEKEFNETMAQQAPHCAVCMIFQTYHQVEFGGFNQNCGNASDLAPQKQRTKPLIPEMCFTSTGCSTDINLSTPYLEEDGTSILVSCKKCSIRVHASCYGVPPAKASEDWMCSRCSANALEEDCCLCSLRGGALQRANDDRWVHVSCAVAILEARFVNIAERSPVDVSKIPLPRFKLKCIFCKKRRKRTAGCCVQCSHGRCPTAFHVSCAQAAGVMMQPDDWPFVVFITCFRHKIPNLERAKGALQSITAGQKVISKHKNGRFYQCEVVRLTTETFYEVNFDDGSFSDNLYPEDIVSQDCLQFGPPAEGEVVQVRWTDGQVYGAKFVASHPIQMYQVEFEDGSQLVVKRDDVYTLDEELPKRVKSRLSVASDMRFNEIFTEKEVKQEKKRQRVINSRYREDYIEPALYRAIME
B7: 2A-R825H*: KDM4A mutation (protein, UniProt O75164 2-1064, looked up, variant R825H)
Lysine-specific demethylase 4A: B6 Lysine-specific demethylase 4A with I742V, R824H
B8: 2A-R825C*: KDM4A mutation (protein, UniProt O75164 2-1064, looked up, variant R825C)
Lysine-specific demethylase 4A: B6 Lysine-specific demethylase 4A with I742V, R824C

test system: H3K36me3; assay: H3K36 demethylase activity of KDM4A variants in transfected cells (immunofluorescence); format: cell-based; set-up: key: + indicates active; − indicates inactive; +/− indicates partial acitivty; settings: KDM4A mutations
Description: The indicated NHF-tagged KDM4A deletion constructs were transfected into RPE cells grown on coverslips in 10 cm dishes using X-tremeGENE 9™ DNA transfection reagent (Roche). H3K36me3 and subcellular localization were assayed by examining transfected cells (positive for HA staining; HA.11 Covance) following fixation in 3.7% PFA in PBS (Whetstine et al., 2006).
All immunofluorescence experiments were performed as in (Black et al., 2013). For the localization experiment a minimum of 50 cells were blinded and scored. For the catalytic activity, cells overexpressing a high level of KDM4A WT or SNP-A482 were analyzed in a non quantitative manner.

| Molecule | H3k36 Demethylase Activity |
| --- | --- |
| B1 | + |
| B2 | − |
| B3 | + |
| B4 | + |
| B5 | + |
| B6 | + |
| B7 | + |
| B8 | + |

test system: H3K9me3; assay: H3K9 demethylase activity of KDM4 variants in transfected cells; format: cell-based; set-up: key: + indicates active; − indicates inactive; +/− indicates partial acitivty; settings: KDM4A mutations

| Molecule | H3k9 Demethylase Activity |
| --- | --- |
| B1 | + |
| B2 | − |
| B3 | + |
| B4 | + |
| B5 | + |
| B6 | + |
| B7 | + |
| B8 | + |
